Laboratory results: the supplement of paper PMC10567573
± gives the standard deviation.

Assay: protein stability index of a GFP-peptide fusion (GPS, HEK-293T) (PSI 1-6); higher = more stable
[1] = treatment: DMSO, c terminus: a fixed tail appended
[2] = treatment: MLN4924 1 uM, 8 h, c terminus: a fixed tail appended
[3] = treatment: DMSO, c terminus: native
[4] = treatment: MLN4924 1 uM, 8 h, c terminus: native
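Also: 24-mer peptide tiles fused after GFP, lentivirally expressed, FACS-sorted into six equal bins by GFP/DsRed ratio, decoded by Illumina sequencing, PSI is the read-weighted mean bin number.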

| Sequence | protein stability index [1] | protein stability index [2] | protein stability index [3] | protein stability index [4] |
| --- | --- | --- | --- | --- |
| TGEHREFKLDKKYQRPQDSEDMWG [FBF1] | 4.56 ± 0.23 | 4.55 ± 0.35 | – | – |
| IMNEKCVVENAEKILGYLNTNVLS [SLC6A17] | 2.92 ± 0.35 | 2.47 ± 0.5 | – | – |
| SHFSRLSEEKLALDNNASASGNAT [C10orf62] | 5.03 ± 0.14 | 5.13 ± 0.26 | – | – |
| PALKIYEYHVKPLQTKHLKNNSS [SAMD13] | – | – | 3 ± 0.15 | 3.04 ± 0.2 |
| GGPQALVNIMRTYTYEKLLWTTSR [CTNNB1] | 2.43 ± 0.6 | 2.5 ± 0.27 | – | – |
| RPSQYRPDGLRSGDGVPPRSLQDG [LCOR] | 4.83 ± 0.091 | 4.85 ± 0.17 | – | – |
| PDEGSDLFYDDYYEDGEVEEEADS [CDC34] | 5.36 ± 0.32 | 5.66 ± 0.25 | – | – |
| KKNHEEEMKEFSSQLAGQVNVEMD [KRT15] | 5.6 ± 0.12 | 5.59 ± 0.23 | – | – |
| MTQLSSTLARCAKDILGFAVMFFI [PKD2L1] | 2.39 ± 0.37 | 2.28 ± 0.42 | – | – |
| LTRQLVSCSSDGGIAVWNMDVSRE [WDFY1] | 2.96 ± 0.32 | 3.08 ± 0.2 | – | – |
| RELLMNHRRGLGVDSKPELQRVLE [FAM107A] | 3.95 ± 0.18 | 4.09 ± 0.14 | – | – |
| VNVPGSFVCQCYSGYALAEDGKRC [MATN2] | 2.75 ± 0.42 | 3.05 ± 0.46 | – | – |
| MKRQNVRTLSLIVCTFTYLLVGAA [KCNK9] | 3.36 ± 0.22 | 2.95 ± 0.37 | – | – |
| QGKADGLYPNPRERSSFYSCAGGR [CHIT1] | 3.64 ± 0.097 | 3.87 ± 0.31 | – | – |
| WENRHEGVFKFLRSEAVAQLWGQK [ELF3] | 2.43 ± 0.32 | 2.67 ± 0.35 | – | – |
| QNVRNHIHSCFSDVTCFLLPHPGL [ATL3] | 2.49 ± 0.65 | 2.29 ± 0.55 | – | – |
| IFSVTALDPDSKENAQIIYSLAED [PCDHGA10] | 3.1 ± 0.47 | 3.21 ± 0.19 | – | – |
| QNCKKKLGKLPPQYALELLTVYAW [OAS1] | 2.6 ± 0.58 | 2.25 ± 0.64 | – | – |
| LPSRPPPLLSPLLASRNPCPWHYL [RSPH3] | 2.27 ± 0.2 | 2.15 ± 0.22 | – | – |
| QIQEFKEAFTLMDQNRDGFIDKED [MYL5] | 5.12 ± 0.26 | 5.19 ± 0.32 | – | – |
| ISFGQLSDRFGRKKVYLTGFALDI [SLC22A15] | 2.97 ± 0.43 | 2.73 ± 0.59 | – | – |
| KSVAWEGGACPAFLPSLRPPPLTS [NCF4] | 3.12 ± 0.36 | 3.11 ± 0.078 | – | – |
| ATRSTTQSNRTSRLIGKKMNRSVS [WEE1] | 4.27 ± 0.28 | 4.21 ± 0.3 | – | – |

| Sequence | protein stability index [1] | protein stability index [2] | protein stability index [3] | protein stability index [4] |
| --- | --- | --- | --- | --- |
| SAQRSKDPNSQVGACIVNSENKIV [DCTD] | 4.91 ± 0.17 | 4.98 ± 0.12 | – | – |
| GSAGGLGSTLGGSSYSSCYSFGSG [KRT17] | 3.29 ± 0.13 | 3.43 ± 0.33 | – | – |
| ALAVKAGHGYDSKKQQELTAAVLG [ZBED1] | 3.82 ± 0.24 | 3.87 ± 0.25 | – | – |
| QPGLSFLNLGSGTGYLSTMVGLIL [PCMTD1] | 2.15 ± 0.29 | 2.2 ± 0.31 | – | – |
| SVLKLHHSLQQSEPDLRHLVLVVN [SERTAD1] | 2.46 ± 0.24 | 2.04 ± 0.25 | – | – |
| HVYIGSAGLDWQSLGQMKELGVIF [PLD5] | 2.49 ± 0.71 | 2.58 ± 1.1 | – | – |
| IFAGVHDEKAKPRDRQQAPGLGQE [TLE6] | 4.73 ± 0.2 | 4.81 ± 0.065 | – | – |
| SGTPQAGTPSPSRSRDSNSGPEEP [RTN2] | 5.35 ± 0.068 | 5.48 ± 0.28 | – | – |
| SERAEVQRLEEQERRHREEKERRK [RSPH3] | 5.31 ± 0.47 | 5.673 ± 0.05 | – | – |
| GSQPNSGLALESSSGLQDVTGPDN [NFE2L1] | 5.45 ± 0.21 | 5.44 ± 0.3 | – | – |
| PDKESMYYPRVQHYRELLDSLPMD [GDAP1] | 3.38 ± 0.23 | 3.48 ± 0.35 | – | – |
| QGEICLCTSRIFVQKSIYSEFLKR [ALDH8A1] | 2.29 ± 0.64 | 2.06 ± 0.49 | – | – |
| CRALRDPALDSLAYEYEREGLYEQ [TRADD] | 3.73 ± 0.34 | 3.63 ± 0.18 | – | – |
| CTACGSVLEDNIIVSEVQFVESSG [BRF1] | 3.42 ± 0.57 | 3.74 ± 0.35 | – | – |
| QLNGILLHLESELAQTRAEGQRQA [KRT18] | 2.93 ± 0.26 | 2.86 ± 0.16 | – | – |
| ISYLVLSMISMGLFSIAPLIYGSM [JAGN1] | 2.91 ± 0.46 | 3.19 ± 0.17 | – | – |
| HSGEKPFICKECGKAYGWCSELIR [ZNF232] | 2.22 ± 0.25 | 2.72 ± 0.66 | – | – |
| CQRERAFSVKFEVQAPRWGNPRAL [OAS1] | 2.46 ± 0.12 | 2.8 ± 0.27 | – | – |
| EMPTQPGKPLIPPMNRRNILVMKH [NETO1] | 3.21 ± 0.045 | 3.27 ± 0.24 | – | – |
| GEVPVLIHGENIICEATQIIDYLE [GDAP1] | 3.55 ± 0.29 | 3.6 ± 0.3 | – | – |
| IAAGEVIQRPANAIKEMIENCLDA [MLH1] | 4.26 ± 0.18 | 4.3 ± 0.34 | – | – |
| MFGFFFGRTPLIKLSPKKTWEGFI [CDS2] | 2.38 ± 0.48 | 2.35 ± 0.49 | – | – |
| QKLEREARICRLLKHPNIVRLHDS [CAMK2A] | 2.5 ± 0.13 | 2.72 ± 0.17 | – | – |

| Sequence | protein stability index [1] | protein stability index [2] | protein stability index [3] | protein stability index [4] |
| --- | --- | --- | --- | --- |
| QKSGLIRHQKIHSGEKPYKCSDCG [ZNF649] | 3.63 ± 0.52 | 4.04 ± 0.29 | – | – |
| ATFSGFKKEQRRLGIPKNPWLWSE [ETS2] | 2.28 ± 0.18 | 2.57 ± 0.52 | – | – |
| NAKLASDDFRSKYQTEQSLRLLVE [KRT34] | 3.16 ± 0.34 | 3.04 ± 0.49 | – | – |
| ALKYWKKAMNMRYSDRTNIISKPV [FEM1C] | 2.5 ± 0.52 | 2.28 ± 0.31 | – | – |
| YAIVRRPTVGIGGDRLQFNQLSQA [EFHC1] | 2.06 ± 0.21 | 2.5 ± 0.19 | – | – |
| VLQDRAAKGSLGTQIGFADLMGVL [FEM1A] | 2.15 ± 0.31 | 2.22 ± 0.35 | – | – |
| TAELVVIEDAAEPKEPAPPNGSAA [PALM] | 5.39 ± 0.14 | 5.47 ± 0.16 | – | – |
| LLTVTATDRDEGANGEVTYSFRKL [PCDHGA10] | 4.1 ± 0.26 | 4.15 ± 0.33 | – | – |
| VKTSVPSSKSSGDLVDLFDGTSQS [CLINT1] | 4.71 ± 0.24 | 4.8 ± 0.18 | – | – |
| APELLGGAEPGTYLTGTINGDPES [ADAMTS4] | 5.73 ± 0.28 | 5.51 ± 0.36 | – | – |
| LAEYQDLTFLTKQEILLAHRRFCE [CIB1] | 2.3 ± 0.1 | 2.54 ± 0.38 | – | – |
| VNPAYPESRYTSDYFISYGIEHAQ [ETS1] | 2.8 ± 0.51 | 2.8 ± 0.4 | – | – |
| DLMKRLRFALIPAPELVERVQSVD [KLHL14] | 2.16 ± 0.14 | 2.3 ± 0.21 | – | – |
| PSLGPALSTGPRGLCAMPQTGDAF [VENTX] | 3.64 ± 0.089 | 3.6 ± 0.17 | – | – |
| LDFLQEVTRQPRNLQDLCRIKIRQ [ASB7] | 3.35 ± 0.16 | 3.57 ± 0.3 | – | – |
| SIKNSLKVAAISESPVAEKSAST [PTGFR] | – | – | 4.5 ± 0.14 | 4.27 ± 0.2 |
| HRRFCELLPQEQRSVESSLRAQVP [CIB1] | 3.63 ± 0.13 | 3.66 ± 0.15 | – | – |
| DVMLVECYDPKGDQWNILQTPILE [KLHL14] | 2.55 ± 0.36 | 2.64 ± 0.38 | – | – |
| HPAFLPQRQAIKGAFYRRAQRLRP [KCNG1] | 3.32 ± 0.37 | 3.58 ± 0.33 | – | – |
| CGCGSFCRLGYGCGYEGCRYGCGH [KRTAP19-2] | 2.55 ± 0.44 | 2.62 ± 0.46 | – | – |
| VCGHTLCESCVDLLFVRGAGNCPE [MNAT1] | 2.64 ± 0.42 | 2.87 ± 0.53 | – | – |
| SESSGQTHLEGDTVQIICNTGYRL [CFHR2] | 3.34 ± 0.21 | 3.48 ± 0.38 | – | – |
| GGCGGPRAWSQCGGGGLRAWSQRS [CPOX] | 2.73 ± 0.74 | 2.56 ± 0.46 | – | – |

| Sequence | protein stability index [1] | protein stability index [2] | protein stability index [3] | protein stability index [4] |
| --- | --- | --- | --- | --- |
| GKDVATQILEGELFDFDLEVKPVL [RSPH3] | 3.79 ± 0.087 | 3.81 ± 0.46 | – | – |
| AFASTCLLSRFSVGIFHLMQIAVP [TMEM175] | 3.02 ± 0.29 | 3 ± 0.22 | – | – |
| QSGATISMPCSTDKENGENVGLES [SASS6] | 5.55 ± 0.22 | 5.43 ± 0.27 | – | – |
| ISVTAYQNPQITQLKIAANPFAKG [TBX6] | 2.33 ± 0.22 | 2.36 ± 0.16 | – | – |
| TLEQEQEALVNRLWKRMDKLEAEK [CCDC6] | 4.42 ± 0.22 | 4.52 ± 0.17 | – | – |
| PTMHLESPALQVMGPAQEAPVAEA [ZNF449] | 5.22 ± 0.17 | 5.21 ± 0.07 | – | – |
| SIMEMQAMEVNTSASEILYSAPPG [NFE2L1] | 3.81 ± 0.33 | 3.94 ± 0.28 | – | – |
| HTEERPFKCNYCGKSFRQRPSLVI [ZNF449] | 2.37 ± 0.15 | 2.44 ± 0.28 | – | – |
| VFIDFSVYNANINLFCVLRLVVEF [PKD2L1] | 3.51 ± 0.61 | 2.7 ± 0.4 | – | – |
| CEKTFNRKDHLKNHLQTHDPNKMA [PLAGL1] | 4.31 ± 0.26 | 4.42 ± 0.16 | – | – |
| QEDITKSLLVTELGSSRTPETVRM [IMPA1] | 4.58 ± 0.12 | 4.49 ± 0.34 | – | – |
| EHACTVRNLARSQSVKMKDKLKID [TAF7L] | 4.75 ± 0.18 | 4.81 ± 0.2 | – | – |
| PAPLLVLCPSRAELDRWLYHLEKQ [PLEKHN1] | 2.62 ± 0.11 | 2.17 ± 0.29 | – | – |
| ASQSLGSPMYFFLASLSFIDTVYS [OR4A15] | 2.89 ± 0.57 | 2.67 ± 0.96 | – | – |
| MLLFLSVPQPRPPGARTRAGAARV [FBXO33] | 2.31 ± 0.26 | 2.13 ± 0.21 | – | – |
| EDNLEDDDVEMKNGITQGDKLRAL [CDC14A] | 5.44 ± 0.26 | 5.38 ± 0.12 | – | – |
| WNDCISSGLRGGILIELAMRGRIY [GOLPH3L] | 2.89 ± 0.45 | 2.48 ± 0.53 | – | – |
| THALAEWASRREAFAQRPSSAPDL [CDC25B] | 3.91 ± 0.26 | 4.01 ± 0.082 | – | – |
| QQKWTKPARAGSEVEWTEDLALDL [C2CD2L] | 4.37 ± 0.27 | 4.48 ± 0.28 | – | – |
| DEIEEVPTTSHRLSRHDKAVQRFC [NETO1] | 4.78 ± 0.18 | 4.68 ± 0.1 | – | – |
